Measurements: US20250129150A1

Target: recombinant human C1q (human) (UniProt P02745)
Assay: SPR, antibody captured on anti-kappa chip, C1q as analyte; signal relative to rituximab

Chain of Lebrikizumab (Construct 1) (antibody; other documents disagree on this pair) (heavy): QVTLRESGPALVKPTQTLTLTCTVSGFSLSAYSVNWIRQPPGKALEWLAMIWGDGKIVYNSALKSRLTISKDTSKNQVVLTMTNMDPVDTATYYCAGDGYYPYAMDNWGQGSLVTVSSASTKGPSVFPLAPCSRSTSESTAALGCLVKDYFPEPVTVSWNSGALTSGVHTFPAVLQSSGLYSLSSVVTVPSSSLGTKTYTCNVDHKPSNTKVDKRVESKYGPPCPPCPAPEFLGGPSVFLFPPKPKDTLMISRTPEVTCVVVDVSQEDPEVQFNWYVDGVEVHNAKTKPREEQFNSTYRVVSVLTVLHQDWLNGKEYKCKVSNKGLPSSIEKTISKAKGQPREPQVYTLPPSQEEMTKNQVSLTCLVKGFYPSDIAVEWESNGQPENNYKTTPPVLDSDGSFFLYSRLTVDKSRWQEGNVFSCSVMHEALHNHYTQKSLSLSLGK
Chain of Lebrikizumab (Construct 1) (antibody; other documents disagree on this pair) (light): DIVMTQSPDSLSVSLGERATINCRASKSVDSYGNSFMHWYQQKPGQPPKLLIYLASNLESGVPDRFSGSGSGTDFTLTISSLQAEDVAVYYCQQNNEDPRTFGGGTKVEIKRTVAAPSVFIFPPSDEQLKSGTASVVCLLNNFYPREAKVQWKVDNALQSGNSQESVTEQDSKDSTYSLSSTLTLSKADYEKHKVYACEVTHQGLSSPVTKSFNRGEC
Chain of recombinant human C1q (human) (P02745 23-245 limits assumed, chain 1 of 3): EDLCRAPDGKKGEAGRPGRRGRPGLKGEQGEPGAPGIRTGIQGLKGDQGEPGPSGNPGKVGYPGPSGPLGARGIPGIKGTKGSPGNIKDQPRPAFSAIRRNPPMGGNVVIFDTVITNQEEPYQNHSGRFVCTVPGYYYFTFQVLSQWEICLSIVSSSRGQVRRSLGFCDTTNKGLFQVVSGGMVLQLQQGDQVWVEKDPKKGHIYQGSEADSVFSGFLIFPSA
Chain of recombinant human C1q (human) (P02746 28-253 limits assumed, chain 2 of 3, further chain): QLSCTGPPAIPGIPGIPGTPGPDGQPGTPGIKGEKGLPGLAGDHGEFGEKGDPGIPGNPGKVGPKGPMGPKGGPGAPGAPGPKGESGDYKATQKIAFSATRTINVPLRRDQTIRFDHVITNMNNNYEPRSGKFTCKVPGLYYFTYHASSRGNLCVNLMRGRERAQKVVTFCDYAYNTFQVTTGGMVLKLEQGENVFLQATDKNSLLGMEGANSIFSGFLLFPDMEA
Chain of recombinant human C1q (human) (P02747 29-245 limits assumed, chain 3 of 3, further chain): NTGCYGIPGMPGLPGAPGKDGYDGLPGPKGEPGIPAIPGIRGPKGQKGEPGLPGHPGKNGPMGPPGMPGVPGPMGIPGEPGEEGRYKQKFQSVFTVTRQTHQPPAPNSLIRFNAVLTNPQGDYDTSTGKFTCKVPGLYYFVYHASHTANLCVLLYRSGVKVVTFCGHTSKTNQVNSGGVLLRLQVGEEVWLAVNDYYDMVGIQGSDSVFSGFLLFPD

- C1q (Signal Relative to Rituximab): 39.6%
Substance: Lebrikizumab (Construct 1) (antibody; other documents disagree on this pair)
